We go through six molecules from patent publication US20220411487A1 (Regeneron, published 2022).

Numbering of substitutions follows the chain as printed. Names may count otherwise.

Experiment [1] has as its target T1, full-length mouse TMPRSS6 with a C-terminal triple myc tag on HEK293.hHJV cells (HEK293.hHJV/3xMyc.mTMPRSS6) (mouse, UniProt Q9DBI0 1-811).
T1 sequence: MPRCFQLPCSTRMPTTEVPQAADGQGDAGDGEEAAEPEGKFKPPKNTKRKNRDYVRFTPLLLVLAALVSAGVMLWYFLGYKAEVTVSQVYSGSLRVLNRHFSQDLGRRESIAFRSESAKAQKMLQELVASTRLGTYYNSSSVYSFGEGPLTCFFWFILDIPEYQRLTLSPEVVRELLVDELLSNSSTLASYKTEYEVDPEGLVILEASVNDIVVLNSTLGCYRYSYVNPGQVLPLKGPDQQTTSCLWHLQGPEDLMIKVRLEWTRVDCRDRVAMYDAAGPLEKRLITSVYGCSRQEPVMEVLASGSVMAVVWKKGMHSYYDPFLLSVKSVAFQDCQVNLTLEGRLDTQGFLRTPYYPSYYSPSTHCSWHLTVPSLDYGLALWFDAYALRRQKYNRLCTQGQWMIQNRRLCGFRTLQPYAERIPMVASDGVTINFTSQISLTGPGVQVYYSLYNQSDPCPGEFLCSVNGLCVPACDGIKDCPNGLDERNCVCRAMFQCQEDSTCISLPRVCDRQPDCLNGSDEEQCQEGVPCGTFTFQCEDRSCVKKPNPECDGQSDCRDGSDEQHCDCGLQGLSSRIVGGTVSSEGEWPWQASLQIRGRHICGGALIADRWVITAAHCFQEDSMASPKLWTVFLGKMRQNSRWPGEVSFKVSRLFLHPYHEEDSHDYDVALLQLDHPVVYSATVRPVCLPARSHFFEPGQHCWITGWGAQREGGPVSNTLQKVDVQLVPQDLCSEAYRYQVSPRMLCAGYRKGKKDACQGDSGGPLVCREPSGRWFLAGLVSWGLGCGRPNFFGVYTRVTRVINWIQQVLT
Description: cell-based or functional assay.

A further experiment concerns the target T2, hTMPRSS6_S762A-MMH (human, UniProt Q8IU80 77-811).
T2 construct: also called REGN5330; human TMPRSS6_S762A-MMH
The experiment is described as follows: SPR, mAb captured via anti-hFc, 37 C. As to the method: (§1) The equilibrium dissociation constant (KD) for TMPRSS6 binding to different TMPRSS6 monoclonal antibodies (mAbs) was determined using a real-time surface plasmon resonance biosensor using a Biacore 4000 instrument. All binding studies were performed in 10 mM HEPES, 150 mM NaCl, 3 mM EDTA, and 0.05% v/v Surfactant Tween-20, pH 7.4 (HBS-ET) running buffer at 25° C. and 37° C. The Biacore CM5 sensor chip surface was first derivatized by amine coupling with a human Fc specific mouse mAb to capture different TMPRSS6 mAbs. […] Different concentrations (100 nM to 3.7 nM, 3-fold serial dilution) of the TMPRSS6 reagent proteins prepared in HBS-EP running buffer were injected over the TMPRSS6 mAb captured surface for 150 seconds at a flow rate of 30 μL/min and their dissociation in HBS-ET running buffer was monitored for 10 minutes. At the end of each cycle, the TMPRSS6 mAb captured surface was regenerated using a 12 second injection of 20 mM phosphoric acid.
(§2) The association rate (kₐ) and dissociation rate (kd) were determined by fitting the real-time binding sensorgrams to a 1:1 binding model with mass transport limitation using Scrubber 2.0 (BioLogic Software) curve-fitting software. Binding dissociation equilibrium constant (KD) and dissociative half-life (t½) were calculated from the kinetic rates as: […]
For orientation: In SPR one partner is held on a chip, and binding of the other changes the refractive index at the surface.

The target in the next experiment is T3, mfTMPRSS6_S751A-MMH (Macaca fascicularis, UniProt Q8IU80 77-811 (human entry)).
T3 construct: also called REGN5977; Macaca fascicularis TMPRSS6 extracellular domain with a S751A mutation and a C-terminal myc-myc-hexahistidine tag
T3 chain: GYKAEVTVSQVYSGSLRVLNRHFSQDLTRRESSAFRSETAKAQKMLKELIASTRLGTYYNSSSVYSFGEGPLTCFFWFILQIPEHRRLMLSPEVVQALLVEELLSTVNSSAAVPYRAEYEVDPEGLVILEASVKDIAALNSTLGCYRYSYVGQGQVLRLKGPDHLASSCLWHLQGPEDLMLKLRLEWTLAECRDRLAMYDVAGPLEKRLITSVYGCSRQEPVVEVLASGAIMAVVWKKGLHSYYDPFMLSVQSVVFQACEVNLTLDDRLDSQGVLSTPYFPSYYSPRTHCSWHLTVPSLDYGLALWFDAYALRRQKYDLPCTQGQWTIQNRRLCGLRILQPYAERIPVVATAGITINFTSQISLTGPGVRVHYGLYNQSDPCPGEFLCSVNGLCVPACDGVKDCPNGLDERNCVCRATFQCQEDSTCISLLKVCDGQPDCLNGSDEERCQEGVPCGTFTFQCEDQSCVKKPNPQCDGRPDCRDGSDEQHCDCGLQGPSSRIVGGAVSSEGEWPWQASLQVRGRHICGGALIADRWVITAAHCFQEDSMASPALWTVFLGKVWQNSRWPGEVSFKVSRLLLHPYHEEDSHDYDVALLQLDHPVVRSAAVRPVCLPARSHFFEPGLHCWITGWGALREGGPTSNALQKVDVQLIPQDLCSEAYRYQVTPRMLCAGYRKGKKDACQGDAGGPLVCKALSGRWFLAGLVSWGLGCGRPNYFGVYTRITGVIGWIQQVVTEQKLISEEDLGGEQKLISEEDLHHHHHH
Description: SPR, mAb captured via anti-hFc, 37 C. As to the method: as §1, §2

B1: REGN7974 (antibody, human IgG4 S228P, kappa, V domains shown)
VH: EVQLVESGGGLVQPGRSLRLSCIASGFNFGDYGMSWVRQAPGKGLEWVGFIRSKAYGGTTEYAASVKGRFTISRDDSKSIAYLQMNSLKTEDAAMYYCSRDYYDILTGYYGDYWGQGTLVTVSS
VL: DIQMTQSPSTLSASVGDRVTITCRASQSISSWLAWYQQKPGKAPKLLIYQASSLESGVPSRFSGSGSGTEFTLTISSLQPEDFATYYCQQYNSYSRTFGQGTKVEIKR
notes: fully human; human IgG4 Fc with hinge S108P; also called mAb41422
What is called Kd is a measure of binding affinity in units of concentration. Read a low Kd as higher affinity. The term koff denotes the first-order rate constant of dissociation. A lower koff goes with a long-lived complex. Usually kon stands for the second-order rate constant of association. A word on the t½: it is the time in which the quantity being followed falls by half. Read a high t½ as slow loss. Turning to B1, in experiment [1], the “Inhibition (%) of soluble hHJV release (ELISA)” value (shortened to “Inhibition (%)”) turned out to be 11.8%. Further, in the experiment with hTMPRSS6_S762A-MMH, the “100 nM Ag Bound” value was 206 RU, binding was put at a Kd of 21.2 nM, the off-rate constant (koff) worked out at 0.00235 s⁻¹ and the kon is 111000 M⁻¹ s⁻¹. In addition, the t½ with hTMPRSS6_S762A-MMH is 4.9 min. In the experiment with mfTMPRSS6_S751A-MMH, the “100 nM Ag Bound” value was 183 RU; the affinity, expressed as Kd, was 16.1 nM; the koff is 0.00405 s⁻¹; the kon was 251000 M⁻¹ s⁻¹. Further, the t½ with mfTMPRSS6_S751A-MMH worked out at 2.9 min.

B2: REGN7999 (antibody, human IgG4 S228P, kappa, V domains shown)
VH: EVQLVESGGGLVQPGGSLRLSCAASGFTFSSYAMTWVRQAPGKGLEWVSAISGSDTSTYYADSVKGRFTISRDNSKNTLFLQMNSLRAEDTAVYYCAKHQDYDFSYYYSAMDVWGQGTTVTVSS
VL: DIQMTQSPSSLSASVGDRVIITCRASQDFNSWLAWYQQKPGKAPKLLIYAASSLQSGVPSRFSGSGSGTDFTLTISSLQPEDFATYYCQQTDSFPFTFGPGTKVDIKR
notes: fully human; human IgG4 Fc with hinge S108P; also called mAb41450
With B2, in experiment [1], the “IC50, soluble hHJV release (ELISA)” value is 0.0826 nM and the “Inhibition (%)” value was 98.5%. In addition, in the experiment with hTMPRSS6_S762A-MMH, the “100 nM Ag Bound” value was found to be 129 RU, the Kd amounted to 2.3 nM, the koff stood at 0.000354 s⁻¹ and the kon was determined as 154000 M⁻¹ s⁻¹. Also, the t½ with hTMPRSS6_S762A-MMH was 33 min. In addition, in the experiment with mfTMPRSS6_S751A-MMH, the “100 nM Ag Bound” value worked out at 143 RU; the affinity, expressed as Kd, was 0.75 nM; the koff is 0.000306 s⁻¹; the on-rate (kon) was found to be 408000 M⁻¹ s⁻¹. In addition, the t½ in the experiment with mfTMPRSS6_S751A-MMH amounted to 38 min.

B3: REGN7977 (antibody, V domains shown)
VH: EVQLVESGGGLVKPGGSLRVSCAASGVTFSNVWMSWVRQVPGKGLEWVGRIKSKTDGGTTDYAAPVKGRFTISKDDSKNTLFLQMNSLKTEDTAVYYCTTETGDFWSGYYPRFQHWGQGTLVTVSS
VL: DIQMTQSPSSLSASVGDRVTITCRASQYISTYLNWYQQKPGKAPSLLIYAASSLQSGVPSRFSGSGSGTDFTLTISSLQPEDFASYSCQQSYSTPPYTFGQGTKLEIKR
notes: fully human; human IgG4 Fc with hinge S108P; also called mAb41465
Consider B3, for which the “Inhibition (%)” value in experiment [1] was found to be 46.4%. In the experiment with hTMPRSS6_S762A-MMH, the “100 nM Ag Bound” value was determined as 134 RU, the equilibrium dissociation constant (Kd) is 11 nM, the off-rate constant (koff) came out at 0.00124 s⁻¹ and the kon turned out to be 113000 M⁻¹ s⁻¹. This molecule also registered a t½ with hTMPRSS6_S762A-MMH of 9 min. In the experiment with mfTMPRSS6_S751A-MMH, the “100 nM Ag Bound” value was 133 RU, the Kd is 11.9 nM, the off-rate constant (koff) turned out to be 0.00247 s⁻¹ and the association rate constant (kon) was 207000 M⁻¹ s⁻¹. Further, the t½ with mfTMPRSS6_S751A-MMH turned out to be 4.7 min.

B4: REGN7969 (antibody, human IgG4 S228P, kappa, V domains shown)
VH: QVQLVESGGGVVQPGRSLRLSCAASGFTFNNYGMHWVRQAPGKGLEWVAIISYDGSNEYYSDSVKGRFTISRDNSKNTLYLQMNSLRAEDTAVYYCARDQDYGGNLFHYWGQGTLVTVSS
VL: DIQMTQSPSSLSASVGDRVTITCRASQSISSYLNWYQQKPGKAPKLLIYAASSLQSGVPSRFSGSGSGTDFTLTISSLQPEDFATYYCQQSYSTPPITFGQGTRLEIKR
notes: fully human; human IgG4 Fc with hinge S108P; also called mAb37746
On to B4, for which the “Inhibition (%)” value in experiment [1] was less than 1%. Besides, in the experiment with hTMPRSS6_S762A-MMH, the “100 nM Ag Bound” value worked out at 110 RU, binding was characterised by a dissociation constant (Kd) of 4.4 nM, the off-rate constant (koff) is 0.000975 s⁻¹ and the association rate constant (kon) worked out at 222000 M⁻¹ s⁻¹. In the experiment with hTMPRSS6_S762A-MMH, this molecule came in with a t½ of 12 min. In the experiment with mfTMPRSS6_S751A-MMH, the “100 nM Ag Bound” value is 105 RU, the Kd amounted to 3.27 nM, the koff was 0.000924 s⁻¹ and the association rate constant (kon) was determined as 283000 M⁻¹ s⁻¹. For the same molecule, in the experiment with mfTMPRSS6_S751A-MMH, the t½ turned out to be 12 min.

B5: REGN7971 (antibody, human IgG4 S228P, kappa, V domains shown)
VH: B4 VH with N30S, N31T, E58D, S61L, S85N, R98K, D101G, H108A, Y109S
VL: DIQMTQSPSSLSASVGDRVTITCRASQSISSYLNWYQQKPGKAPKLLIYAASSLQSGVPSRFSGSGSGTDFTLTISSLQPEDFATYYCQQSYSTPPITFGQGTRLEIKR
notes: fully human; human IgG4 Fc with hinge S108P; also called mAb37763
For the molecule B5, the “Inhibition (%)” value in experiment [1] was found to be 10.2%. In addition, in the experiment with hTMPRSS6_S762A-MMH, the “100 nM Ag Bound” value was 169 RU, the dissociation constant Kd is 2.44 nM, the off-rate (koff) was 0.000637 s⁻¹ and the kon was 261000 M⁻¹ s⁻¹. Further, the t½ with hTMPRSS6_S762A-MMH was 18 min. In addition, in the experiment with mfTMPRSS6_S751A-MMH, the “100 nM Ag Bound” value stood at 160 RU, binding was characterised by a dissociation constant (Kd) of 1.68 nM, the koff was determined as 0.00061 s⁻¹ and the association rate constant (kon) worked out at 363000 M⁻¹ s⁻¹. The molecule also displayed a t½ with mfTMPRSS6_S751A-MMH of 19 min.

B6: REGN8023 (antibody, human IgG4 S228P, kappa, V domains shown)
VH: EVQLVESGGGLVKPGGSLRISCAASGFIFVDYAMHWVRQAPGKGLEWVSGISWNSGSIGYADSVKGRFTISRDNAKKSLYLQMSGLRPEDTALYYCVKSGFYYVRSYFDNWGQGTLVTVSS
VL: DIVMTQSPLSLPVTPGEPASISCRSSQSLLDSDDGNTYLDWYLRKPGQSPQLLIYTLSYRASGVPDRFSGSGSGTDFTLKISRVEADDVGVYYCMQRIEFPLTFGGGTKVEIKR
notes: fully human; human IgG4 Fc with hinge S108P; also called mAb37699
With B6, in experiment [1], the “IC50, soluble hHJV release (ELISA)” value was 0.274 nM and the “Inhibition (%)” value is 42%. Also, in the experiment with hTMPRSS6_S762A-MMH, the “100 nM Ag Bound” value was 205 RU; the affinity, expressed as Kd, was 2.24 nM; the koff came to 0.000935 s⁻¹; the kon worked out at 418000 M⁻¹ s⁻¹. This molecule also had a t½ with hTMPRSS6_S762A-MMH of 12 min. Moreover, in the experiment with mfTMPRSS6_S751A-MMH, the “100 nM Ag Bound” value came out at 206 RU, binding was put at a Kd of 1 nM, the off-rate (koff) was 0.000634 s⁻¹ and the kon is 632000 M⁻¹ s⁻¹. Also, the t½ with mfTMPRSS6_S751A-MMH is 18 min.
